Data as given in patent US20240116985A1, “STAPLED PEPTIDES AND METHODS THEREOF” (priority 2020, published 2024).
Starred links: 1 amine or outer side, 2 acyl side, 3 side chain; linkers in the order of their positions; H or OH if unused. Positions of bridges follow the written chain, without caps; N, C: chain ends. Non-standard residues stand in square brackets, D forms with d. Primed or numbered codes have the meaning given here. PyrS2″ = (S)-3-amino-1-((pent-4-en-1-yloxy)carbonyl)pyrrolidine-3-carboxylic acid (stapling residue), C=CCCCOC(=O)N1CC[C@@](N[*:1])(C(=O)[*:2])C1; B5(4) = 2,2-bis(4-pentenyl)glycine = 2-amino-2-(pent-4-en-1-yl)hept-6-enoic acid (stitching residue), C=CCCCC(CCCC=C)(N[*:1])C(=O)[*:2]; B5(5) = 2,2-bis(4-pentenyl)glycine, 2-amino-2-(pent-4-en-1-yl)hept-6-enoic acid (stitching residue), C=CCCCC(CCCC=C)(N[*:1])C(=O)[*:2]; B5(3) = 2,2-bis(4-pentenyl)glycine (stitching residue), C=CCCCC(CCCC=C)(N[*:1])C(=O)[*:2]; B5 = 2-amino-2-(pent-4-en-1-yl)hept-6-enoic acid, C=CCCCC(CCCC=C)(N[*:1])C(=O)[*:2]; Phe(3-COOH) = N[C@@H](Cc1cccc(C(=O)O)c1)C(=O)O; 2F3MeF = Cc1cccc(C[C@H](N[*:1])C(=O)[*:2])c1F; Phe(2-CF3) = N[C@@H](Cc1ccccc1C(F)(F)F)C(=O)O; Phe(2-Cl) = N[C@@H](Cc1ccccc1Cl)C(=O)O; Met(O2) = CS(=O)(=O)CC[C@H](N)C(=O)O; Bta = N[C@@H](Cc1csc2ccccc12)C(=O)O; Lys(iPr) = CC(C)NCCCC[C@H](N)C(=O)O; αAllylPro = C=CC[C@@]1(C(=O)O)CCCN1; tBuAla = CC(C)(C)C[C@H](N)C(=O)O; 3Thi = N[C@@H](Cc1ccsc1)C(=O)O; Cha = N[C@@H](CC1CCCCC1)C(=O)O; S8 = C=CCCCCCC[C@](C)(N)C(=O)O; hSer = N[C@@H](CCO)C(=O)O

Target: full-length beta-Catenin (Uniprot ID P35222) (Homo sapiens (Human)) (UniProt P35222)
Test: fluorescence polarization competition; peptide titrated against full-length beta-catenin + 5FAM-TCF4(10-53)
Target sequence in this assay (P35222 whole entry, the tested form may be a part): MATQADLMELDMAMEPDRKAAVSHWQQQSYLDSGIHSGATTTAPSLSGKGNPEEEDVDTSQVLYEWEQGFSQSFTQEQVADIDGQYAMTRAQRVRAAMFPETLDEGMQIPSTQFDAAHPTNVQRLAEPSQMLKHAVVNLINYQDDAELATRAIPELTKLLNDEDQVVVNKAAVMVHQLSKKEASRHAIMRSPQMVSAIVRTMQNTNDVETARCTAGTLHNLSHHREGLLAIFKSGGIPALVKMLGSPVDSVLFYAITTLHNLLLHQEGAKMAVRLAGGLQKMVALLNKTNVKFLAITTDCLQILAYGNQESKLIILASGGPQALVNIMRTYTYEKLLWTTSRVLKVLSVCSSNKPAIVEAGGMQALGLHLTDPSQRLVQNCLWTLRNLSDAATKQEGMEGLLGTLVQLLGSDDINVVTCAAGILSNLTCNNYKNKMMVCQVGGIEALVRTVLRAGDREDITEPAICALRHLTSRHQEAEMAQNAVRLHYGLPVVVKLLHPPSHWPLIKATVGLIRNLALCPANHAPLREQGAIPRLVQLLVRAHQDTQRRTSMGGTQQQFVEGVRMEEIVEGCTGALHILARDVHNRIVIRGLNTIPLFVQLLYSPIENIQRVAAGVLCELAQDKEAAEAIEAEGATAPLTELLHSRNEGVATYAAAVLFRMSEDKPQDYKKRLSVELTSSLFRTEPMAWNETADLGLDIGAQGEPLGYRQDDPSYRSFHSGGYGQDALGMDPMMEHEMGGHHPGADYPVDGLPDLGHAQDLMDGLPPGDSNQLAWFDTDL

IC50 [nM] | Binder
82 | Ac-[αAllylPro]D[tBuAla][B5]DEAAFN[S8][3Thi][Bta]-NH2 (staple 1-4, 4-11) [I-718]
70 | Ac-[αAllylPro]D[tBuAla][B5(3)]DEAAFN[S8]F[Bta]-NH2 (staple 1-4, 4-11) [I-713]

Target: full-length beta-Catenin (Uniprot ID P35222) (Homo sapiens (Human)) (UniProt P35222)
Test: fluorescence polarization competition; 10 nM full-length beta-catenin, 10 nM 5FAM-TCF4(10-53) as competitor probe
Target sequence in this assay (P35222 2-781 limits assumed): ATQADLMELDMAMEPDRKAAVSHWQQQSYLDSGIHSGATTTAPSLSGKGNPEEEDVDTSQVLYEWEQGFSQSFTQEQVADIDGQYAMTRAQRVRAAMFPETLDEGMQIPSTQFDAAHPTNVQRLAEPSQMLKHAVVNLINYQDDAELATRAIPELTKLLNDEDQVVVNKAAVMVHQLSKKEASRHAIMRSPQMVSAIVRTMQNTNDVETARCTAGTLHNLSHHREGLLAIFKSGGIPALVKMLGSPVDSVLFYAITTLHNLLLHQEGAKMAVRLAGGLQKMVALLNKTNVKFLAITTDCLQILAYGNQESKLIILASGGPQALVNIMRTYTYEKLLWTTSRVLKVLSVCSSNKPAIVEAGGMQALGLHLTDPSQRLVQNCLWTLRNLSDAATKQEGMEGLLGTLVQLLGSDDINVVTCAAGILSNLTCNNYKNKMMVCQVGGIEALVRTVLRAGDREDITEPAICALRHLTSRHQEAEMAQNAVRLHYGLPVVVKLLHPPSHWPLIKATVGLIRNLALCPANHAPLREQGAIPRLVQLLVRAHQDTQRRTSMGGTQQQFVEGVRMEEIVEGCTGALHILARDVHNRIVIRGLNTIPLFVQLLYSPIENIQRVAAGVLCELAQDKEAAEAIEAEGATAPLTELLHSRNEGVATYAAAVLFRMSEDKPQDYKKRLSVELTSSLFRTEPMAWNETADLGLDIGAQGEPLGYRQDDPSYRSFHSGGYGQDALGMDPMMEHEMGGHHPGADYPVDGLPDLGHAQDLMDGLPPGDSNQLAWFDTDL

Binder | IC50 [nM]
Ac-[αAllylPro]D[tBuAla][B5(3)]D[Phe(3-COOH)]QAFF[PyrS2″][3Thi][Bta]A-NH2 (staple 1-4, 4-11) [I-2052] | 12
Ac-[αAllylPro]D[tBuAla][B5(4)]D[Phe(3-COOH)]QAFV[PyrS2″][3Thi][Bta]A-NH2 (staple 1-4, 4-11) [I-2054] | 5
Ac-[αAllylPro]D[tBuAla][B5(4)]D[Phe(3-COOH)]QAFL[PyrS2″][2F3MeF][Bta]A-NH2 (staple 1-4, 4-11) [I-2057] | 17
Ac-[αAllylPro]D[tBuAla][B5(4)]D[Phe(3-COOH)]QAFL[PyrS2″][3Thi][Bta]L-NH2 (staple 1-4, 4-11) [I-2056] | 16
Ac-[αAllylPro]D[tBuAla][B5(3)]D[Phe(3-COOH)]TAFL[PyrS2″][3Thi][Bta]A-NH2 (staple 1-4, 4-11) [I-2051] | 16
Ac-[αAllylPro]D[tBuAla][B5(4)]D[Phe(3-COOH)]SAFL[PyrS2″][Phe(2-CF3)][Bta]A-NH2 (staple 1-4, 4-11) [I-2059] | 38
Ac-[αAllylPro]D[tBuAla][B5(4)]D[Phe(3-COOH)]NAFL[PyrS2″][Phe(2-CF3)][Bta]A-NH2 (staple 1-4, 4-11) [I-2058] | 10

More lines, now with the values ahead:

IC50 [nM] | Binder
338 | Ac-[αAllylPro]N[Cha][B5(4)]DQ[Lys(iPr)]AFN[PyrS2″]F[Bta]F-NH2 (staple 1-4, 4-11) [I-2068]
144 | Ac-[αAllylPro]N[Cha][B5(4)]DQ[Lys(iPr)]AFN[PyrS2″]F[Bta]A-NH2 (staple 1-4, 4-11) [I-2065]
56 | Ac-[αAllylPro]D[tBuAla][B5(4)]D[Phe(3-COOH)]TAFL[PyrS2″][Phe(2-CF3)][Bta]A-NH2 (staple 1-4, 4-11) [I-2060]
256 | Ac-[αAllylPro]N[Cha][B5(4)]DQHAFN[PyrS2″]F[Bta]A-NH2 (staple 1-4, 4-11) [I-2069]
190 | Ac-[αAllylPro]N[Cha][B5(4)]DQQAFN[PyrS2″]F[Bta]A-NH2 (staple 1-4, 4-11) [I-2070]
56 | Ac-[αAllylPro]D[tBuAla][B5(4)]D[Phe(3-COOH)]AAFL[PyrS2″][Phe(2-CF3)][Bta][Met(O2)]-NH2 (staple 1-4, 4-11) [I-2063]
180 | Ac-[αAllylPro]N[Cha][B5(4)]DQQAFN[PyrS2″]F[Bta][hSer]-NH2 (staple 1-4, 4-11) [I-2067]
41 | Ac-[αAllylPro]D[tBuAla][B5(4)]D[Phe(3-COOH)]AAFL[PyrS2″][Phe(2-Cl)][Bta][Met(O2)]-NH2 (staple 1-4, 4-11) [I-2062]
357 | Ac-[αAllylPro]N[Cha][B5(5)]DQHAFN[PyrS2″]F[Bta][hSer]-NH2 (staple 1-4, 4-11) [I-2066]

Target: full-length beta-Catenin (Uniprot ID P35222) (Homo sapiens (Human)) (UniProt P35222)
Test: fluorescence polarization competition; full-length beta-catenin with 5FAM-labeled TCF4 residues 10-53 probe as competitor
Target sequence in this assay (P35222 whole entry, the tested form may be a part): as the sequence (P35222 whole entry, the tested form may be a part) above

EC50 [nM] | Binder
82 | Ac-[αAllylPro]D[tBuAla][B5]DEAAFN[S8][3Thi][Bta]-NH2 (staple 1-4, 4-11) [I-718]
70 | Ac-[αAllylPro]D[tBuAla][B5(3)]DEAAFN[S8]F[Bta]-NH2 (staple 1-4, 4-11) [I-713]

Target: full-length beta-Catenin (Uniprot ID P35222) (Homo sapiens (Human)) (UniProt P35222)
Test: fluorescence polarization competition; 10 nM full-length beta-catenin + 10 nM 5FAM-TCF4(10-53) probe; peptide titrated 10 uM to 5 nM
Target sequence in this assay (P35222 2-781 limits assumed): as the sequence (P35222 2-781 limits assumed) above

IC50 [nM] | Binder
19 | Ac-[αAllylPro]D[tBuAla][B5(3)]N[Phe(3-COOH)]AAFT[PyrS2″][3Thi][Bta]Q-NH2 (staple 1-4, 4-11) [I-2336]
